The values below come from the nanobody polyreactivity screen of Harvey et al. (2022).

This series can be described thus: yeast display, Sf9 membrane polyspecificity reagent, FACS + sequencing; frameworks hold sequencing errors. The essentials:
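Nanobodies came from a synthetic yeast display library in Saccharomyces cerevisiae BJ5465, induced with galactose for 36–48 hours and stained for 1 hour at 4 °C with 10% biotinylated, detergent-solubilized Sf9 membrane reagent. Cells were enriched on streptavidin microbeads and then FACS-sorted, with low and high (top ~1%) gates set on anti-HA fluorescence for expression and streptavidin fluorescence for reagent binding. Each polyreactivity label reflects the gate a clone came from. Genes were amplified by colony PCR, sequenced by MiSeq 2 × 250 and filtered by CDR length.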
With “QVQLVESGGGLVQAGGSLRLSCAASGRTFAQNAMGWYRQAPGKERELVAAITASGSITYYADSVKGRFTISRDNAKNTVYLQMNSLKPEDTAVSYCAARGRYHFFSKYDYWGQGTQVTVSS”, the “polyreactivity (PSR sort gate)” value is on record as “high polyreactivity”.

Consider “QVQLVESGGGLVQAGGSLRLSCAASGRTFLYYAMGWSRQAPGKEMELVAAIRRGSSTYYADSVKGRFTISRDNAKITVYLQRNCPKPEDTAVYYCAARSFAITKYGSYDYWGQGTQVTVSS”, for which the “polyreactivity (PSR sort gate)” value was “high polyreactivity”.

On to “QVQLVESGGGLVQAGGSLRLSCAASGSTFGPYAMGWYRQAPGKERELVATITRNGGSTYYADSVKGRFTISRDNAKNTVYLQMNSLKPEDTAVYYCNAEGRWSSFTQRMDYWGQGTQVTVSW”, for which the “polyreactivity (PSR sort gate)” value is recorded as “low polyreactivity”.

With “QVQLVESGGGLVQAGGSLRLSCAASGFISFDNAMGWYRQAPGKERELVAAIRSGGSTNYADSVKGRFTISRDNAKNSVYLQMNSLKPEDTAVYYCAALDQYGYYQKYYYWGQGTQVTVSS”, the “polyreactivity (PSR sort gate)” value was “low polyreactivity”.

On to “QVQLVESGGGLVQAGGSLRLSCAASGRIFDNNAMGWYRQAPGKERELVAAIDWRGGSTDYADSVKGRFTISRDNAKNNVYLHMNSLKQEDTAVYYCVAGHVRYWHGYSYDYWGQGTQVTVSS”, for which the “polyreactivity (PSR sort gate)” value is given as “low polyreactivity”.

As for “QVQLVESGGGLVQAGGILRLSCAPSGRIISWNPIGLYRQAPGQERELVADITYSGGSTYYADSVKGRFTISRDNAKNTVYLQMNSLKPEDTAVYDCNADPRWYHFEYGYWGQGTQVTVSS”, the “polyreactivity (PSR sort gate)” value was “high polyreactivity”.

“QVQLVESGGGLVQAGGSLRLSCAASGIIFYKYAMGWKRQGPGKERELVAAITSGGRRTYYADSVKGRFTISRDNAKNTVYLLMNSLKPEDTEAFYCAARFSYPWLYLFVYWGQVTQVTVSS”: the “polyreactivity (PSR sort gate)” value is “high polyreactivity”.

Turning to “QVQLVESGGGLVQAGGSLRLSCAASGSIFPWYTMGWYRQAPGKERELVAAITSSGGGTYYADSVKGRFTISRDNAKNTVYLQMNSLKPEDTAVYYCAAGLDWGPEYEYWGQGTQVTVSS”, the “polyreactivity (PSR sort gate)” value is reported as “low polyreactivity”.

As to “QVQLVESRGGLVQAGGSLRLSCAASGSTFFRYAMGWYRQAPGKERELVAAITDSDGSTYYADSVKGRFTISRDNAKNTVYLQMNSLKPEDTAVYYCAAAHPDGWTVYNPQGGAWYDYWGQGSQVTVSS”, the “polyreactivity (PSR sort gate)” value was “low polyreactivity”.

On to “RVQLVESGGGLVQAGGILRLSSAASGSTFPANAMGWYRQAPGKERELVAAITWRAASTYYADSVKGRFTISRDNAKNTVYLQMNSLKPEDTAVYYCARVTNSSAKNTDDYWGQGTQVTVSS”, for which the “polyreactivity (PSR sort gate)” value is on record as “low polyreactivity”.

For “QVQLVESGGGLVQAGGSLRLSCAASGSTFYVYAMGWYRQAPGKERELVAAIDGSTGSTYYADSVKGRFTISRDNAKNTVYLQMNSLKPEDTAVYYCNAESIPPYSITKFDYWGQGTQGTVSS”, the “polyreactivity (PSR sort gate)” value is recorded as “low polyreactivity”.

As for “QVQLVESGGGLVQAGGSLRLSCAASGLIFRQYPMGWYRQAPGKERELVAAITGSGGRTYYADSVKGRFTISRDNAKNTVYLQMNSLKPEDTAVYYCARPNLLSGDYWGQGTQVTVSS”, the “polyreactivity (PSR sort gate)” value was “high polyreactivity”.

Consider “QVQLEESGGGLVQAGGSLRLSCAASGIISTYYVMGWYRQAPGKERELVAAITGGDSSTYYADSVKGRFTISRDTAKNTVYLQMNSLIPDDTAVYYCAKEYYYARGARYDYWGQGTQVTVSS”, for which the “polyreactivity (PSR sort gate)” value is given as “low polyreactivity”.

Take “QVQLVESGGGLVQAGGSLRLSCAASGFTFYRYAMGWYRQAPGKERELVAAISSTGDRTYYADSVKGRFTISRDNAKNTVYLQMNSLKPEDTAVYYCAAPYQNQVEFNYWGQGTQVTVSS”: the “polyreactivity (PSR sort gate)” value is “high polyreactivity”.

Turning to “QVQLVESGGGLVQAGGSLRLSCAASGSIFGFNAMGWYSQAPGKEREMVAAINNGGSTNYADSVKGRFTISRDNAKNTVYLQMNSLKPEDTAVYYCAAVRFRPRRNEYWGQGTQVTVSS”, the “polyreactivity (PSR sort gate)” value is listed as “high polyreactivity”.

Take “QVQLVESGGGLVQAGGSLRLSSAGSGRTFLANAMGWYRQAPGKEREFVAAIDWRTGSTYYADSVKGRFTISRDNAKNTVYLLMNSLKPEDTAVYYCAKDSSSYYYAHFYDWGQGTQVTVSS”: the “polyreactivity (PSR sort gate)” value is reported as “high polyreactivity”.

Consider “QVQLVESGGGLVQAGGSLRLSCAASGITFRHNTMGWYRQAPGKERELVSTNYADSVKGRFTISRDNAKNTVYLQMNSLKPEDTAVYYCNADGTFEYDYWGQGTQVTVSS”, for which the “polyreactivity (PSR sort gate)” value is listed as “low polyreactivity”.

On to “QVQLVGSGGGLVQAGGSLRLSCAASGSTFGYYAMGWYRQAPGKERELVAAITKSGGSTFYADSVKGRFTISRDNAKNTVYLQMNSLKPEDTAVYYCAARYKGQYYRQGRHDFWGQGTQVTVSS”, for which the “polyreactivity (PSR sort gate)” value was “high polyreactivity”.

With “QVQLVESGGGLVQAGGSLRLSCAASGLIFRFYAMGWYRQAPGKERELVAAISSRGGSTYYADSVKGRFTISRDNAKNTVYLQMNSLKPEDTAVYYCAAVFSLIASSYDYWGQGTQVTVSS”, the “polyreactivity (PSR sort gate)” value was “high polyreactivity”.

On to “QVQLVESGGGLVQAGGSLRLSCAASGRIFSIYTMGWSRQAPGKERELVAAISASDGSTYYADSVKGRFTISRDNAKNTVYLQMNSLKPEDTAVYYCAIDTYPQKVTYGSFAYDYWGEGTQVTVSS”, for which the “polyreactivity (PSR sort gate)” value is given as “low polyreactivity”.

For the sequence “QVQLVESGGGLVQAGGSLRLSSAASGRTFFRSGMGWYRQAPGKEREFVAAITRSGTTTYYADSVKGRFTISRDNAKQTVYLPMNSLQPEDTAVYYCAAQRAAPVDGKSDYWGHGTQVTVSS”, the “polyreactivity (PSR sort gate)” value was “low polyreactivity”.

Turning to “QVQLVESGGGLVQAGGSLRLSCAASGGTFNHYAMGWYRQAPGKERELVSSITNGASTYYADSVKGRFTISRDNAKNTVYLQMNSLKPEDTAVYYCAARTAVGPIRSYWYDYWGQGTQVTVSS”, the “polyreactivity (PSR sort gate)” value is “low polyreactivity”.

On to “QVHLVESGGGLVQAGRSLRLICAASGSTFDYYAMGWYRQAPGKERELVAGIDSAGSTNYADSVKGRFTISRDNAKNTVYLQMNSLKTGRYRGLYCNVGKTITTYAFPTFDYWRQGTQVTVSS”, for which the “polyreactivity (PSR sort gate)” value is reported as “low polyreactivity”.

Turning to “QVQLVESGGGLVQAGGSLRLSCAASGSIFDYYVMGWYRQSPGKERELVAAISLSGGSTYYADSVKGRFTISRDNAKNTVYLQMNSLKPEDTAVYYCNADSQWYDYDYWGQGTQVTVSS”, the “polyreactivity (PSR sort gate)” value is “high polyreactivity”.

“QVQLVESGGGLVQAGGSLRLSCAASGFTFYTNAMGWYRQAPGKERELVAGINSGSSTYYADSVKGRFTISRDNAKNTVYLQMNSLKPEDTAVYYCAARARRRYYYWGQGTQVTVSS”: the “polyreactivity (PSR sort gate)” value is listed as “high polyreactivity”.

With “QVQLVESGGGLVQAGGSLRLSCAASGSIFYLYTMGWYRQAPWKERELVAGISNGDRTYYADSVKGRFTISRDNAKNTVYLQMNSLKPEDTAVYYCAVTVYWYSRAAEYDYWGQGTQVTVSS”, the “polyreactivity (PSR sort gate)” value is listed as “low polyreactivity”.

Regarding “QVQHVESGGGLVQAGGSLRLSCAASGITFRVNAMGWYRQAPGKERELVASISRSGGSTYYADSVKGRFTISRDNAKNTVYLQMNSLKPEVTAVYYCAAAQKVLFYGRWFDYWGQCTQVTVSS”, the “polyreactivity (PSR sort gate)” value was “low polyreactivity”.

For the sequence “QVQLVESGGGLVQAGGSLRLSCAASGRTFRRYAMGWYRQAPGKERELVASISRTGGSTYYADSVKGRFTISRDNSKNTVYLQMNSLKPEDTAVFYCNAGPSVGWYNYWGQGTQVTVSS”, the “polyreactivity (PSR sort gate)” value was “high polyreactivity”.

On to “QVQLVESGGGLVQAGGSLRLSFAASGRTFNTYTMGWYRQAPGKERELVAAITGTGGSTFYADSVKGRFTISRDNAKNTVYLQMNSLKPEDTAVYYCNADLEVTIGVYTDGFDSDYWGQGTQVTVSS”, for which the “polyreactivity (PSR sort gate)” value is on record as “low polyreactivity”.

With “QVQLVESGGGLVQAGCILRLSCDASGRTFAPYAMGWYRQAPGKAWELVAAITNGGSPSYADSVKGRFTISRDNAKNTVYLEMNSLKREDTAVFYCAADIVSSTDYPFEYWGQGTQVTVSS”, the “polyreactivity (PSR sort gate)” value is recorded as “low polyreactivity”.

On to “QVQLVESGGGLVQAGGSLRLICAATGITFITYVMGWYSQAPGKERELVAAISLRGGRTSYADSVKGRFTISRDNAKNTVYLQMNSLKPEDTAVYYCAARGGAYQNAYEYDYWGPGTQVTVSS”, for which the “polyreactivity (PSR sort gate)” value is on record as “high polyreactivity”.

“QVQLVESGGRLVQAGGSLRLSCAASGSTFYRNAMGWYRQAPGKERELVASINNGGSTYYADSVKGRFTISRDNAKNTVYLQMNSLKPEDTAVYYCAATESWDYDYWGQGTQVTVSS”: the “polyreactivity (PSR sort gate)” value was “low polyreactivity”.

Take “QVQLVESGGGLVQAGGSLRLSCTASGITSGSYAMGWYRQAPGKERELVAAISNSGSTYYADSVKGRFTISRDNAKNSVYLQMNSLKPEDTAVYYCNADDWWGGYDYWGQGTQVTVSS”: the “polyreactivity (PSR sort gate)” value is reported as “low polyreactivity”.

Regarding “QVQLVESGGGLVQAGGSLRLSCAASGLTFSYYAMGWYRQAPGKERELVAAISITGSTNYADSVKGRFTISRDNAKNTVYLQMNSLKPEDTAVYYCAARRSLSVLPYYYWGQGTQVTVSS”, the “polyreactivity (PSR sort gate)” value is listed as “high polyreactivity”.

As for “QVQLVESGGGLVQAGGSLRLSCAASGSIFEGNTMGWYRQAPGKERELVASISSTANTYYADSVKGRFTLSRDNAKKNVYLQMNSLKPEDTAVYYCNVARYFLVPVVDDNYWGQGTQVTVSS”, the “polyreactivity (PSR sort gate)” value is given as “low polyreactivity”.

Turning to “QVQLVESGGGLVQAGGSLRLSCAASGFIFVENAMGWYIQAPGKERELVASISRRGGSTYYADSVKGRFTISRDNAKNTVYLQMNSLKPEDTAVYYCAATLGRTRYNYWGQGTQVTVSS”, the “polyreactivity (PSR sort gate)” value is reported as “high polyreactivity”.

For the sequence “QVQLQESGGGLVLAGGSLRLSCSASGNISFYGSMGWYRQAPGKESEFVATIDPGTNTNYADSVKDRFTISRDNAKNTVYLQMNSLKPEDTAVYYCAVEAGSDWPYRYWGQGTQVTVSS”, the “polyreactivity (PSR sort gate)” value is “low polyreactivity”.

As to “QQQLQESGSGLVQAGGSLRLSCAASGNIFQDWVMGWYRQAPGKERELVAAISPGAITYYADSVKGRFTISRDNAKNTVYLQTNSLKPEDTAVYYCAAYYIVEYLHGYWGQGTRVTVSS”, the “polyreactivity (PSR sort gate)” value was “low polyreactivity”.

“QVQHVESGGGLVQAGGSLRLSCAASGFTFNYYAMGWYRQAPGKERELVAAITSSGGSTYYADSVKGRFTISRDNAKNTVYLQMNSLKPEDTAVYYCNAAVYAHRYIDGFDYWGQGTQVTVSS”: the “polyreactivity (PSR sort gate)” value is “high polyreactivity”.

Consider “QVQLVESGGGLVQAGGSLRLSCAASGRTFIINTMGWYRQAPGKERELVAAISKNGATTNYADSVKGRFTISSDNAKNSVYLQMNSLKPEDTAVYYCNARYSGYLRLDYWGQGTQVTVSS”, for which the “polyreactivity (PSR sort gate)” value is reported as “low polyreactivity”.

As for “QVQLVESGGGLVQAGGSLRLSCAASGSTITNYAMGWYRQAPGKERELVAAIRYSGGRTYYADSVKGRFTISRDNANNPGYLQMNSLKPEDTAVYYCAADRASYFTYAYGYWGQGTQVTVSS”, the “polyreactivity (PSR sort gate)” value was “high polyreactivity”.
